Results on one substance are retold here after paper PMC10844685.

The target of the experiment is pyruvate kinase isoform M2 (PKM2) (human (endogenous in MDA-MB-231 and Hs578T)) (UniProt P14618). Description: native gel or EMSA; total protein of MDA-MB-231 and Hs578T cells, not heat-denatured, non-denaturing loading buffer, native PAGE running buffer, western blot with anti-PKM2; cells with miR-29c-3p inhibitor, with or without TRIM9 knockdown. On the technique in general: In EMSA bound probe runs differently from free probe, usually more slowly.

Chain of pyruvate kinase isoform M2 (PKM2), P14618 1-531 (enzyme; other documents disagree on this pair) (P14618 whole entry, canonical isoform): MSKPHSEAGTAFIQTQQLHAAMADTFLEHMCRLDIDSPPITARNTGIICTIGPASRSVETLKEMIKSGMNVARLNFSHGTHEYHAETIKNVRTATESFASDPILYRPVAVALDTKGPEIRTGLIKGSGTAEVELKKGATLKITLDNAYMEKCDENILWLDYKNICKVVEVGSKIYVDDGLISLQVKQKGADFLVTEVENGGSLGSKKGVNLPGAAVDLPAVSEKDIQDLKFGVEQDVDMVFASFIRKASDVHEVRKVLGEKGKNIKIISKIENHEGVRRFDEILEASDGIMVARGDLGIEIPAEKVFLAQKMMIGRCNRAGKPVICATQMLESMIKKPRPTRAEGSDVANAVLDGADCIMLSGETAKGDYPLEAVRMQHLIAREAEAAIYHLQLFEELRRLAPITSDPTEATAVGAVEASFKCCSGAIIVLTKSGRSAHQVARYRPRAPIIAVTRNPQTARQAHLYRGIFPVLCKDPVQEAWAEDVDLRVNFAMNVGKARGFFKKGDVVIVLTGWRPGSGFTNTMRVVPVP

Consider “pyruvate kinase isoform M2 (PKM2), P14618 1-531 (enzyme; other documents disagree on this pair)”, for which the stoichiometry N – broadly, the number of molecules, sites or subunits per partner or assembly – is 2.
